Measured values from paper PMC7225076.
Read-outs that look alike come from different tables or passages of the source.

Experiments:
Test in all cases: EMSA
WT mDHX36 (46-982) [1] = biological target: T1, WT mDHX36 (46-982) (Mus musculus, UniProt B2RQS6 46-982)
T1 sequence: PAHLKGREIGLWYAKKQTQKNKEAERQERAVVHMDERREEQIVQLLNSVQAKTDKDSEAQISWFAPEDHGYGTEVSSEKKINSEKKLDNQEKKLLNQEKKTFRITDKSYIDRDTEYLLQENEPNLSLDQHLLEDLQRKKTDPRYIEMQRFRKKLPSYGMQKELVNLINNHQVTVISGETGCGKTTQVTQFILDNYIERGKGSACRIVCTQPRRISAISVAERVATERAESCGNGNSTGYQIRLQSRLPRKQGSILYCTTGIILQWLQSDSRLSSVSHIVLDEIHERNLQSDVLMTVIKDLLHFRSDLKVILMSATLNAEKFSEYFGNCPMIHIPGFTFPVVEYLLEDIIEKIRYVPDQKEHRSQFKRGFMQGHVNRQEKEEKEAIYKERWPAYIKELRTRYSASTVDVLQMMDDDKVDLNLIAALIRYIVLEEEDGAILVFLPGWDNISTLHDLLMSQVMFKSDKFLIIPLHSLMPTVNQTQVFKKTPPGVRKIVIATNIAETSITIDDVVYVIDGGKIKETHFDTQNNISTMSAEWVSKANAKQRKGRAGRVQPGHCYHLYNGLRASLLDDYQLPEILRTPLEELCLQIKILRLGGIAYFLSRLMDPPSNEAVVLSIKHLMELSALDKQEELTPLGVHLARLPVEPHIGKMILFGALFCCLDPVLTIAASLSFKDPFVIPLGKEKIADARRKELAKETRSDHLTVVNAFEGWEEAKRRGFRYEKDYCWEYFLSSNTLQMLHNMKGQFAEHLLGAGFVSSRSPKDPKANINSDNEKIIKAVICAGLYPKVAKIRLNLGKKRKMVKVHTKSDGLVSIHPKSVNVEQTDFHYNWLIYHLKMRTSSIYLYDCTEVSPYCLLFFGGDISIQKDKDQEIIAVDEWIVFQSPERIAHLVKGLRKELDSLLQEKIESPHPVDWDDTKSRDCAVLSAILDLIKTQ

mDHX36 delta-OB-fold = biological target: T2, mDHX36 delta-OB-fold (Mus musculus, UniProt B2RQS6 46-834+895-981, internal_change)
T2 sequence: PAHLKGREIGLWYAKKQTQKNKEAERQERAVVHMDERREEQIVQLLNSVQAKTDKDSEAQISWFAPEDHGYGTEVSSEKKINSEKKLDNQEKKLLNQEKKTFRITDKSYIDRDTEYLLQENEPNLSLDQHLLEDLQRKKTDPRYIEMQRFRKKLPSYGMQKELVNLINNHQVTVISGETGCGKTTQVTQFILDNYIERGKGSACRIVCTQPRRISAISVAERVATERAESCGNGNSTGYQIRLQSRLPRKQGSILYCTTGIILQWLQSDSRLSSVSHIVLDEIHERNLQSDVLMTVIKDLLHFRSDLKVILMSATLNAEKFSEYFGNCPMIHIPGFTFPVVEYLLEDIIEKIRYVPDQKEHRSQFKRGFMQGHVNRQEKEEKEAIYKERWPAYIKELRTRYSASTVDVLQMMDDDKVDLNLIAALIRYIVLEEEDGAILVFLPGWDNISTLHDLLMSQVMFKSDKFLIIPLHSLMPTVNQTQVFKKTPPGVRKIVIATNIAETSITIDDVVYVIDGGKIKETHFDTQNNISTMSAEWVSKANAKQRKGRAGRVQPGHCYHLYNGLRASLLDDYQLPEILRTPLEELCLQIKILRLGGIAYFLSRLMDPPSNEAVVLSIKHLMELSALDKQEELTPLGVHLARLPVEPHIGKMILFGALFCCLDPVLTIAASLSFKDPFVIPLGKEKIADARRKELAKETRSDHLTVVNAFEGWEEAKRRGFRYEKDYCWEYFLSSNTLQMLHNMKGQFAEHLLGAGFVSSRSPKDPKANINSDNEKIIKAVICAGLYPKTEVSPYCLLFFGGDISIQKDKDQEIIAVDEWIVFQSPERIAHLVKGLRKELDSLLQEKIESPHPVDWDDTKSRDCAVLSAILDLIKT

WT mDHX36 (46-982) [2] = biological target: T1, WT mDHX36 (46-982); remark: listed apart in the source

B1: GQI (GQ1) intramolecular RNA G-quadruplex (structured_RNA)
RNA: UUAGGGGGAGGGGGAUGGGGGAGGGGGAAAAAAAAAAAAAAA
binding result (WT mDHX36 (46-982) [1]): binds | apparent K (half saturation) (mDHX36 delta-OB-fold): ~50 nM

B2: RNA duplex R16/R31 (dsRNA)
RNA 1: AGCACCGUAAAGACGC
RNA 2: GCGUCUUUACGGUGCUAAAAAAAAAAAAAAA
binding result (WT mDHX36 (46-982) [2]): binds
